Three molecules from article PMC2636851 can be followed below.

For data set [1], the target named is T1, Mcm10-ID K293A (Xenopus laevis, UniProt Q5EAW4 230-427, K293A).
T1 sequence: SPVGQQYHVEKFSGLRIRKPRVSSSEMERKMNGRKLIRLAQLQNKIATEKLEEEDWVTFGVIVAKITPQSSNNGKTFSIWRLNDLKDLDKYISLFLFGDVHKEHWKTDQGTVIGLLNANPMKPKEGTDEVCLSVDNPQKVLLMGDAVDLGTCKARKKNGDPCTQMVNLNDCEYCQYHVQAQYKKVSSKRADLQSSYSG
As to the kind of experiment: fluorescence anisotropy. In general terms: In fluorescence polarisation assays a small probe gives low polarisation when free and higher when bound to something large.

Data set [2] addresses T2, Mcm10-ID K385E/K386E (Xenopus laevis, UniProt Q5EAW4 230-427, K385E;K386E).
T2 sequence: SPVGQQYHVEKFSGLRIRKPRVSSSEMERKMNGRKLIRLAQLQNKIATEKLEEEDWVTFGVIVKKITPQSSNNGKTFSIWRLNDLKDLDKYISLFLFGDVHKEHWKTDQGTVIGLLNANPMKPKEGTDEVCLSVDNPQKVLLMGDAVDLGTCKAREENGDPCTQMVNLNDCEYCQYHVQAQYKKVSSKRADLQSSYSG
Nature of the data set: fluorescence anisotropy.

In data set [3] the target is T3, Mcm10-ID F326A (Xenopus laevis, UniProt Q5EAW4 230-427, F326A).
T3 sequence: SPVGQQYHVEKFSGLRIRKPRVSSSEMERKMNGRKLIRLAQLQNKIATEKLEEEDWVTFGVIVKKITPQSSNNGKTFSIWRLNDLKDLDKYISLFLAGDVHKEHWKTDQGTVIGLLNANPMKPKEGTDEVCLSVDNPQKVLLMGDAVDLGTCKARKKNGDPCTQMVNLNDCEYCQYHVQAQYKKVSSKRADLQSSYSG
As to the kind of experiment: fluorescence anisotropy.

Data set [4] has as its target T4, Mcm10-ID K417E/R418E (Xenopus laevis, UniProt Q5EAW4 230-427, K417E;R418E).
T4 sequence: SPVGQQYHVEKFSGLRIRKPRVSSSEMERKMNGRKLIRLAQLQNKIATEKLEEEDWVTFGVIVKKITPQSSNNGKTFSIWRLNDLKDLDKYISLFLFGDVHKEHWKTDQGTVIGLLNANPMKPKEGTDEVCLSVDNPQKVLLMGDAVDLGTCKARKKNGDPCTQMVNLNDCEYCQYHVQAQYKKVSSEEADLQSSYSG
Nature of the data set: fluorescence anisotropy.

In data set [5] the target is T5, Mcm10-ID K412E/K413E (Xenopus laevis, UniProt Q5EAW4 230-427, K412E;K413E).
T5 sequence: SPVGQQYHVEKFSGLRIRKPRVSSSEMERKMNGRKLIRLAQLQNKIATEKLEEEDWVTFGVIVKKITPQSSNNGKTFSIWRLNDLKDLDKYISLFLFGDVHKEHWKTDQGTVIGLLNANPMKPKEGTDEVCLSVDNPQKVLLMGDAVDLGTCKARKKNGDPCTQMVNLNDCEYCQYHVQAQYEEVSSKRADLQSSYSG
Nature of the data set: fluorescence anisotropy.

Data set [6] concerns the target T6, Mcm10-ID wild type (Xenopus laevis, UniProt Q5EAW4 230-427).
T6 sequence: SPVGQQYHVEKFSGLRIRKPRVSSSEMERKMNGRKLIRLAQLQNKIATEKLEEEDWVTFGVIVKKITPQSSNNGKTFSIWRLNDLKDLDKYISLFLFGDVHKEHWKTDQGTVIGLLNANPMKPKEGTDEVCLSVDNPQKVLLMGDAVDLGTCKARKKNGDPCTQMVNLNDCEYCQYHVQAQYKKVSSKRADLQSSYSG
As to the kind of experiment: fluorescence anisotropy.

The target of data set [7] is T6, Mcm10-ID wild type. Nature of the data set: NMR.

B1: 25mer ssDNA (ssDNA)
DNA: ATGGTAGGCAACCATGTAGTAGTCA
Regarding B1, the binding signal was 5 fold reduction in affinity vs wild type in data set [1] and 10 fold reduction in affinity vs wild type in data set [2]. Moreover, the binding result in data set [3], in data set [4] and in data set [5] was “binds” in each case.

B2: 10mer from 5' end of 25mer (ssDNA)
DNA: ATGGTAGGCA
On to B2, for which the binding result in data set [6] was “binds”.

B3: 15mer ssDNA (NMR) (ssDNA)
DNA: GGCGCATTGTCGCAA
On to B3, for which the binding result in data set [7] is “binds”.
